{
  "source": "paper PMC9097636",
  "about": "“FOXO transcription factors differ in their dynamics and intra/intermolecular interactions” (Current Research in Structural Biology, 2022)",
  "assay_in_all_cases": "NMR titration; 1H,15N HSQC of 50 uM 15N-labelled FH domain, unlabelled CR3 added in trans (25 uM or 50 uM); 50 mM NaH2PO4/Na2HPO4 pH 6.5, 0.04% NaN3, 5 mM DTT; 25 C; read-out chemical shift perturbations and line broadening",
  "conditions_in_all_cases": "both partners purified",
  "key": {"[1]": {"target": "T1, FOXO6 forkhead (FH) domain, amino acids 71 to 191 (human, UniProt A8MYZ6 71-191)", "T1 construct": "human FOXO6 (Forkhead box O6), Uniprot A8MYZ6, amino acids 71 to 191, forkhead domain; Uniformly 15N-labelled in the NMR titrations; Cloned into the vector pETM11-ZZ-His6 via NcoI/BamHI; also called FOXO6^FH; FOXO6 FH domain; source: E. coli BL21-DE3 Star, purified (Ni-NTA, TEV cleavage, second Ni-NTA, SEC)", "T1 sequence (A8MYZ6 71-191)": "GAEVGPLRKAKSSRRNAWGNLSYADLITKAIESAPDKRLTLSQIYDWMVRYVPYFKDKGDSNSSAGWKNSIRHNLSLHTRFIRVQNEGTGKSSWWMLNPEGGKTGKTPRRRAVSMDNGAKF"}, "[2]": {"target": "T2, FOXO1 forkhead (FH) domain, amino acids 143 to 270 (human, UniProt Q12778 143-270)", "T2 construct": "human FOXO1 (Forkhead box O1), Uniprot Q12778, amino acids 143 to 270, forkhead domain; Uniformly 15N-labelled in the NMR titrations; Cloned into the vector pETM11-ZZ-His6 via NcoI/BamHI; also called FOXO1^FH; FOXO1 FH domain; source: E. coli BL21-DE3 Star, purified (Ni-NTA, TEV cleavage, second Ni-NTA, SEC)", "T2 sequence (Q12778 143-270)": "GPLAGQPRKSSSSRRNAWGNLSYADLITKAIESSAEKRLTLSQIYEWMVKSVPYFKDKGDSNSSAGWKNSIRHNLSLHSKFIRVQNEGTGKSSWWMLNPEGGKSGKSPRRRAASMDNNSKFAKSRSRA"}, "[3]": {"target": "T3, FOXO3 forkhead (FH) domain, amino acids 141 to 260 (human, UniProt O43524 141-260)", "T3 construct": "human FOXO3 (Forkhead box O3), Uniprot O43524, amino acids 141 to 260, forkhead domain; Uniformly 15N-labelled in the NMR titrations; Cloned into the vector pETM11-ZZ-His6 via NcoI/BamHI; also called FOXO3^FH; FOXO3 FH domain; source: E. coli BL21-DE3 Star, purified (Ni-NTA, TEV cleavage, second Ni-NTA, SEC)", "T3 sequence (O43524 141-260)": "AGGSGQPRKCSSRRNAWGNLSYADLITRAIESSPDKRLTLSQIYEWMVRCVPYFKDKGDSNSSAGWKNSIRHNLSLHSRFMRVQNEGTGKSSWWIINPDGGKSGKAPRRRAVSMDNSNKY"}},
  "data": [
    {"binder": "YGRMGLLHQEKLPSDLDGMFIERLDCDMESIIRNDLMDGDTLDFNFDNVL (domain or fragment, human, UniProt Q12778 587-636, looked up, human FOXO1, Uniprot Q12778, amino acids 587 to 636, CR3; Unlabelled in the titrations; also called FOXO1^CR3; CR3 of FOXO1; source: E. coli BL21-DE3 Star, lysed in 6 M urea, purified (Ni-NTA, TEV cleavage, second Ni-NTA, SEC))", "note": "[FOXO1 conserved region 3 (CR3, transactivation domain), amino acids 587 to 636]", "values": [
      {"measurement": "binding result", "setting": "[1]", "result": "binds"},
      {"measurement": "binding result", "setting": "[2]", "result": "binds"},
      {"measurement": "binding result", "setting": "[3]", "result": "binds"}
    ]},
    {"binder": "FOXO6 conserved region 3 (CR3, transactivation domain), amino acids 418 to 472 (domain or fragment, human, UniProt A8MYZ6 418-472, looked up, human FOXO6, Uniprot A8MYZ6, amino acids 418 to 472, CR3; Unlabelled in the titrations; also called FOXO6^CR3; CR3 of FOXO6; source: E. coli BL21-DE3 Star, lysed in 6 M urea, purified (Ni-NTA, TEV cleavage, second Ni-NTA, SEC)) YAAAAAGPLGAAPDRFPADLDLDMFSGSLECDVESIILNDFMDSDEMDFNFDSAL", "values": [
      {"measurement": "binding result", "setting": "[1]", "result": "binds"},
      {"measurement": "binding result", "setting": "[2]", "result": "binds"}
    ]}
  ]
}
